No end group written: not given here.
What was measured:
CRFR1 [1] = target: CRFR1 (Homo sapiens, UniProt P34998); test: EC50, nmol (% of Emax) | CRFR1
From the text: (§1) Table printed on a drawing sheet, FIGURE 10
(§2) Title: Pharmacokinetic Parameters
Head of the field: EC50, nmol (% of Emax) | CRFR1
(§3) Footnotes: FIGURE 10: Effect of maximum or steady state plasma concentrations (Cmax or Css) of various CRFR2 agonists (CT38, SCP or Ucn2), dosed by subcutaneous bolus (triangles) or intravenous infusion (circles), on the maximum heart rate (HRmax) in healthy subjects (solid lines) or stable congestive heart failure patients (dashed lines). The table provides comparative pharmacokinetic parameters for the CRFR2 agonists.
(§4) That is, for strongly potent CRFR2 agonists and relative intermediate plasma concentrations, the loss of the ability to induce a heart rate increase via continuous dosing, was driven by the duration of dosing, and appeared to occur with different selective CRFR2 agonists (e.g., Ucn2, stresscopin), irrespective of the condition of the human subject.
(§5) First copying reader's note: Each EC50 cell holds the EC50 in nmol with the % of Emax in brackets after it.
Where the first naming reader finds the target: head: EC50, nmol (% of Emax) | CRFR1

CRFR2 [2] = target: T1, CRFR2 (Homo sapiens, UniProt Q13324); test: EC50, nmol (% of Emax) | CRFR2
T1 sequence (Q13324 whole entry, looked up): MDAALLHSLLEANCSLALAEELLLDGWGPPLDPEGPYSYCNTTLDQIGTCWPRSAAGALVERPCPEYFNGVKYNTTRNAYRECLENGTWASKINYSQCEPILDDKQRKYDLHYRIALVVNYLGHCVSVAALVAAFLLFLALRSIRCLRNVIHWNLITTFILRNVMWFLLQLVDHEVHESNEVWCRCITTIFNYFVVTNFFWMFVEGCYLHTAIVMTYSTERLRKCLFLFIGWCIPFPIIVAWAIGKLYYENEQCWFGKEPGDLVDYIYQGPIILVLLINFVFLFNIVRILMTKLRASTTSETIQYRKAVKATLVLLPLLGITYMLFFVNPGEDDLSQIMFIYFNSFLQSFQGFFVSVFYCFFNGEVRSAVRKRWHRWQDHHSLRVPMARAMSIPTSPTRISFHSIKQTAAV
From the text: as §1, §2
Head of the field: EC50, nmol (% of Emax) | CRFR2
as §3, §4, §5
Where the first naming reader finds the target: head: EC50, nmol (% of Emax) | CRFR2

CRFR1 [3] = target: T2, CRFR1 (Homo sapiens, UniProt P34998); test: in vitro binding potential for CRFR1 (table of FIG. 10); type: biochemical
T2 sequence (P34998 24-415): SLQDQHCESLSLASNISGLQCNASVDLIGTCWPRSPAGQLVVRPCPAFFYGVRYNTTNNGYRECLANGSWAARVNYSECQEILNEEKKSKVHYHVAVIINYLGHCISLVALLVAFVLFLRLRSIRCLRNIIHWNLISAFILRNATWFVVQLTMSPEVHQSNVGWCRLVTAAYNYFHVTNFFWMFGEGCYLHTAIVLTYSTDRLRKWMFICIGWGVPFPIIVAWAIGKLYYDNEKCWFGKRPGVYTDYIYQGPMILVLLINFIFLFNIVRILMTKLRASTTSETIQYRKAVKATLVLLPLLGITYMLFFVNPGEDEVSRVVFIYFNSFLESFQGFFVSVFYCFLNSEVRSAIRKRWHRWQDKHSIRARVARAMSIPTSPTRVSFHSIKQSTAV

CRFR2 [4] = target: T1, CRFR2; test: in vitro potency / binding potential for CRFR2 (table of FIG. 10); type: biochemical
[5] = test system: stable congestive heart failure patients; conditions: escalating i.v. infusion over 3 hours; cited from earlier work

## Ucn3: endogenous CRFR2-selective agonist peptide, used as a proxy for SCP (FTLSLDVPTNIMNLLFNIAKAKNLRAQAAANAHLMAQI) [listing 1 of 2 here]
CRFR1 [1]
  EC50, nmol (% of Emax) | CRFR1: > 1000 (10) nmol (% of Emax)
CRFR2 [2]
  EC50, nmol (% of Emax) | CRFR2: > 100 (60) nmol (% of Emax)

## Ucn3: endogenous CRFR2-selective agonist peptide, used as a proxy for SCP (FTLSLDVPTNIMNLLFNIAKAKNLRAQAAANAHLMAQI) [listing 2 of 2 here]
CRFR1 [3]
  in vitro binding potential for CRFR1: weak binding potential for CRFR1 (minimal, at moderate concentrations)
CRFR2 [4]
  in vitro binding potential for CRFR2: strong binding potential for CRFR2 (maximal, at low concentrations)

## stresscopin (FTLSLDVPTNIMNLLFNIAKAKNLRAQAAANAHLMAQI; ends and bridges not checked; UniProt Q969E3 120-157, looked up)
[5]
  pattern of effect on heart rate versus Ucn2: very similar
